Data as given in paper doi:10.1101/2020.06.02.131169 (bioRxiv, 2020).
Blank lines part the entries; values can stand above or below the molecule they belong to.

What was measured:
[1] = target: bifunctional TreS-Mak of Estrella lausannensis (trehalose synthase-maltokinase) (Estrella lausannensis); assay: SEC
SEC = target: the molecule itself; assay: SEC

stoichiometry N [1]: 2
Molecule: bifunctional TreS-Mak of Estrella lausannensis (trehalose synthase-maltokinase) (enzyme)

B1: GlgE of Estrella lausannensis (maltosyl-1-phosphate transferase) (enzyme, UniProt A0A0H5DRC6 1-675, looked up)
chain: MSVSAAEKRQLLTQVKASGSMYTNTLHSIVIQNISPKPEPFGPAKRVLLEQVEVEADIFTDPHTKLEADLIVKAPGLRKTTRIPFHPLVNDRFKAVFVPDTPGTYSFFVEAWVNPAALWQEDLRKKQEARLDLTVDLQIGAALLVEVADLLPPEESVKLLQIAKKLREQKGAEAVAFDPEIARLGRLARPKSRQGVCSQEQEVFVTRKKALFSTWYELFPRSCSGTMRHGTFNDVVAKLPRISRMGFDVLYLPPIHPIGKTKRKGKNNALTALPDDPGSPWAVGSHEGGHDAIQRELGTLADFERLVKEAESLGIEIALDIALQCSPDHPYLKEHPEWFLKRPDGTYQYAENPPKKYEDIIPFHFTEDNKDTLFREILRIFLFWMKRGVRIFRVDNPHTKPFALWEYVIGEVRKVDSGVIFLAEAFTRPKIMHHLARIGFDQSYTYFTWRNTKWELTEYLTELTKTEARNYLRPNFFVNTPDILPESLQWGGRAAFLTRLILAATLSSSYGIYGPAFEQMLSEAVPGKEDYIDSEKYEIKPWDFEKKGTISETIEIVNRIRKENPALQATGNLEFYATDNDYLLAYGKQGPQGESLLIVVNLDHYHTQSGYVTLPLMHLGIQEKEPYLVDDLLSGERYIWEGERNYIQLSPHLVPAHIFRIRPKMLRENNFDYFI
stoichiometry N (SEC): 2
